Experimental data as given in FireProtDB (doi:10.1073/pnas.84.13.4441).

Conditions: Escherichia coli (strain K12), 25 °C, GdnHCl, CD, Potassium phosphate 20 mM, reversible: yes, whole UniProt chain shown

B1: Tryptophan synthase alpha chain wild type, P0A877 (protein)
chain: MERYESLFAQLKERKEGAFVPFVTLGDPGIEQSLKIIDTLIEAGADALELGIPFSDPLADGPTIQNATLRAFAAGVTPAQCFEMLALIRQKHPTIPIGLLMYANLVFNKGIDEFYAQCEKVGVDSVLVADVPVEESAPFRQAALRHNVAPIFICPPNADDDLLRQIASYGRGYTYLLSRAGVTGAENRAALPLNHLVAKLKEYNAAPPLQGFGISAPDQVKAAIDAGAAGAISGSAIVKIIEQHINEPEKMLAALKVFVQPMKAATRS
unfolding free energy (pH 7): 18.2 kcal/mol | unfolding free energy (pH 9): 18 kcal/mol
